From patent US20180298357A1

Assays:
[1] = molecular target: Sau-TBD, hybrid DNA polymerase prepared by inserting a thioredoxin binding domain (TBD) of bacteriophage T7 DNA polymerase into DNA polymerase I (Sau) of S. aureus; assay: cell-based or functional assay
[2] = molecular target: DNA polymerase I (Sau) of Staphylococcus aureus (Staphylococcus aureus); assay: cell-based or functional assay

Substance: TrxA (thioredoxin of E. coli) (from UniProt P0AA25 2-109)
- Average amplification length of primers (nt) [1/(1 - PI)], in the presence of TrxA [1]: 74.1 nt
- Micro continuous synthetic capacities (PI), in the presence of TrxA [1]: 0.987
- Polymerization activities (units/mg protein), +TrxA (units/mg protein) [1]: 2860
- fold improvement of average amplification length of the primer on addition of TrxA [1]: > 20 fold
- fold improvement of polymerization activity on addition of TrxA [1]: > 2 fold
- Polymerization activities (units/mg protein), +TrxA (units/mg protein) [2]: 3100
